Positions count from the first letter of the chain named.
B1: PRT-12 (protein)
chain: MANQEIRYSEVTPYHVTSVWTKGVTPPADFTQGEDVFHAPYKANQGWYDITKTFNGKDDLLCGAATAGNMLHWWFDQNKDQIERYLKEHPEKQKINFNGEQMFDVKEAIDTKDSQTDSKLFEYFKEKAFPYLSTKHLGVFPDHVIDMFINGYRLSLTNHGPTPVKRGSKDPRGGFFDAVFTRGDQSKLLTSRHDFKEKTLNEISDLIKKELTEGKALGLSHTYANVRINHVINLWGADFDSNGNLEAIYVTDSDSNASIGMKKYFVGVNSAGKVAISAKEIKEDNIGAQVLGLFTLSTGQDIWEQTN
B2: PRT-125 (protein)
chain: MRNATEAYAKEVPHQITSVWTKGVTPLTPEQFRYNNEDVFHAPYLANQGWYDITKTFDGKDNLLCGAATAGNMLHWWFDQNKTEIEAYLSKHPEKQKIIFNNQELFDLKAAIDTKDSQTNSQLFNYFRDKAFPNLSARQLGVMPDLVLDMFINGYYLNVFKTQSTDVNRPYQDKDKRGGIFDAVFTRGDQTKLLTARHDLKNKGLNDISTLIKQELTEGKALALSHTYANVSISHVINLWGADFNAEGNLEAIYVTDSDANASIGMKKYFVGVNAHGHVAISAKKIEGENIGAQVLGLFTLSSGKDIWQKLS
B3: PRT-138 (protein)
chain: B2 chain with L27P, F40I, N47H, T56A, K192T, L211I, K220R, V273I
B4: PRT-126 (protein)
chain: B2 chain with F40I, K192T, T210D, A260S, H276A
B5: PRT-134 (protein)
chain: B2 chain with F40I, N47H, T56A, K192T, K220R, V273I
B6: PRT-130 (protein)
chain: B2 chain with F40I, N47H, T56A, K192T, T210D, L211I, K220R, A260S, V273I, H276A
B7: PRT-133 (protein)
chain: B2 chain with F40I, N47H, K192T, L211I, K220R, V273I
B8: PRT-135 (protein)
chain: B2 chain with F40I, N47H, T56A, K192T, L211I, V273I
B9: PRT-139 (protein)
chain: B2 chain with F40I, T56A, K192T, L211I, K220R, V273I
B10: PRT-137 (protein)
chain: B2 chain with F40I, N47H, T56A, K192T, L211I, K220R, V273I, H278K
B11: PRT-129 (protein)
chain: B2 chain with T56A, K220R, V273I
B12: PRT-132 (protein)
chain: B2 chain with H14K, L27P, F40I, N47H, T56A, K192T, G204T, L211I, K220R, V273I
B13: PRT-128 (protein)
chain: B2 chain with H14K, L27P, F40I, D58N, K192T, G204T, H278K
B14: PRT-136 (protein)
chain: B2 chain with F40I, N47H, T56A, K192T, L211I, K220R
B15: PRT-127 (protein)
chain: B2 chain with F40I, D58N, S90K, K192T, D207E, A260S, H278K
B16: PRT-131 (protein)
chain: MRNATEAYAKEVPHQITSVWTKGVTPLTPEQFRYNNEDVIHAPYLAHQGWYDITKAFNGKDNLLCGAATAGNMLHWWFDQNKTEIEAYLKKHPEKQKIIFNNQELFDLKAAIDTKDSQTNSQLFNYFRDKAFPNLSARQLGVMPDLVLDMFINGYYLNVFKTQSTDVNRPYQDKDKRGGIFDAVFTRGDQTTLLTARHDLKNKGLNEISTIIKQELTEGRALALSHTYANVSISHVINLWGADFNAEGNLEAIYVTDSDANASIGMKKYFVGINAHGKVAISAKKIEGENIGAQVLGLFTLSSGKDIWQKLS
B17: PRT-11 (protein)
chain: MANQEIRYSEETPYHVTSVWTKGVTPPANFTQGEDVFHAPYVANQGWYDITKTFNGKDDLLCGAATAGNMLHWWFDQNKDQIEKYLKEHPEKQKINFNGEQMFDVKEAIDTKDSQTDSKLFEYFKEKAFPYLSTKHLGVFPDHVIDMFINGYRLSLTNHGPTPVKEQSKDPRGGIFDAVFTRGDQSKLLTSRHDFKEKTLKEISDLIKKELSEGKALGLSHTYANVRINHVINLWGADFDSNGNLKAIYVTDSDSNASIGMKKYFVGVNSAGKVAISAKEIKEDNIGAQVLGLFTLSTGQDIWNQTN

Target: pooled human IgG

Protein | Enzyme Activity Endpoint Assay: Fab′2 [ng/µL] | Enzyme Activity Endpoint Assay: Fc [ng/µL] | Enzyme Activity Endpoint Assay: IgG [ng/µL] | Enzyme Activity Endpoint Assay: scIgG [ng/µL] | Enzyme Activity Endpoint Assay (purified): Fab'2 [ng/µL] | Enzyme Activity Endpoint Assay (purified): Fc [ng/µL] | Enzyme Activity Endpoint Assay (purified): IgG [ng/µL] | Enzyme Activity Endpoint Assay (purified): scIgG [ng/µL]
B1 | 47 | 122 | 16 | 14 | – | – | – | –
B2 | – | – | – | – | 609 | 197 | 0 | 0
B3 | – | – | – | – | 563 | 215 | 0 | 144
B4 | – | – | – | – | 472 | 160 | 0 | 0
B5 | – | – | – | – | 597 | 174 | 0 | 0
B6 | – | – | – | – | 592 | 192 | 0 | 0
B7 | – | – | – | – | 774 | 207 | 0 | 12
B8 | – | – | – | – | 526 | 140 | 0 | 6
B9 | – | – | – | – | 733 | 213 | 0 | 0
B10 | – | – | – | – | 662 | 198 | 0 | 0
B11 | – | – | – | – | 384 | 169 | 0 | 0
B12 | – | – | – | – | 697 | 219 | 0 | 0
B13 | – | – | – | – | 560 | 151 | 0 | 60
B14 | – | – | – | – | 635 | 160 | 0 | 0
B15 | – | – | – | – | 523 | 140 | 0 | 0
B16 | – | – | – | – | 745 | 201 | 0 | 0
B17 | 40 | 100 | 13 | 0 | – | – | – | –

— patent US20250027068
